Test results published in patent US20240124597A1 (Bristol-Myers Squibb, published 2024).
Positions count from the first letter of the chain named. Names may count otherwise.

B1: Y1258 (antibody, human IgG1, kappa)
heavy: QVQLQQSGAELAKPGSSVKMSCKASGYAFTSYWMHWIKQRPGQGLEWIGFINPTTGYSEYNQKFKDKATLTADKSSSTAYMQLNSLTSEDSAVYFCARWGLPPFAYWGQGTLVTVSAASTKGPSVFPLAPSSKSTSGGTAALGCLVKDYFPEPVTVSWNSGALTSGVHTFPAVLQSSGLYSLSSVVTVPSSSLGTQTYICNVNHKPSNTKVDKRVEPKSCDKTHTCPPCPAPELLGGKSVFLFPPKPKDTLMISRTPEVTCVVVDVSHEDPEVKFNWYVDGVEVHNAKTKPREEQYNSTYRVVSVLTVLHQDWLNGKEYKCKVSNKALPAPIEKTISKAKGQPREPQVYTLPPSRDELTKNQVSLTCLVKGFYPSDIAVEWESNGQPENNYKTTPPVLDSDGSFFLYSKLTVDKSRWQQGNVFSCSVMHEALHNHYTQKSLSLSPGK
light: DIVMTQSHKFMSTSVGDRVSITCKASQDVSTAVAWYQQKPGQSPKLLIYSASYRYTGVPDRFTGSGSGTDFTFTISSVQAEDLAVYYCQQHYSTPWTFGGGTKLEIKRTVAAPSVFIFPPSDEQLKSGTASVVCLLNNFYPREAKVQWKVDNALQSGNSQESVTEQDSKDSTYSLSSTLTLSKADYEKHKVYACEVTHQGLSSPVTKSFNRGEC
notes: Chimeric, mouse variable and human constant regions; supernatant sample; also called chimeric Y1258
B2: Y1262 (antibody, human IgG1, kappa)
heavy: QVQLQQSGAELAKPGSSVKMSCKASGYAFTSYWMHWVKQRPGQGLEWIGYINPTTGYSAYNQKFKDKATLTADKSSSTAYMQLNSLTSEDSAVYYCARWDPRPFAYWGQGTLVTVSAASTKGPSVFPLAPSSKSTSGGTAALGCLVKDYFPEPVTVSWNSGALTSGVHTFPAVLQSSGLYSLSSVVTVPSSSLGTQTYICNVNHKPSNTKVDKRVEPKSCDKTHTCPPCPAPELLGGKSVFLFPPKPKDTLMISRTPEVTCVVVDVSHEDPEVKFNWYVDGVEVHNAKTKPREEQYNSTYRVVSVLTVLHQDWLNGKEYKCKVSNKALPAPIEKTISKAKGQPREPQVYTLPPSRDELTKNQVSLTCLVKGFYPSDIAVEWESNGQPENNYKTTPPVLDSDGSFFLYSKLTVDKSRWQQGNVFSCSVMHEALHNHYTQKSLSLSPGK
light: B1 light with S67Y
notes: Chimeric, mouse variable and human constant regions; supernatant sample; also called chimeric Y1262; Chim
B3: Y12XX-hz14 (antibody, human IgG1, kappa, V domains shown)
VH: QVQLVQSGAEVKKPGSSVKVSCKASGYAFTSYWMHWVRQAPGQGLEWMGQINPTTGRSQYNEKFKTRVTITADKSTSTAYMELSSLRSEDTAVYYCARWGLQPFAYWGQGTLVTVSS
VL: DIQMTQSPSSLSASVGDRVTITCKASQDVSTAVAWYQQKPGKAPKLLIYSASYRYTGVPSRFSGSGSGTDFTFTISSLQPEDIATYYCQQHYSTPWTFGGGTKVEIKR
notes: Humanized, IgG1-P238K; supernatant sample
B4: Y12XX-hz18 (antibody, human IgG1, kappa, V domains shown)
VH: QVQLVQSGAEVKKPGSSVKVSCKASGYAFTSYWMHWVRQAPGQGLEWMGYINPTTGYSAYNQKFKDKATLTADKSTSTAYMELSSLRSEDTAVYYCARWDPRPFAYWGQGTLVTVSS
VL: B3 VL with S10F, F73L, I83F
notes: as for B3
B5: Y12XX-hz30 (antibody, human IgG1, kappa, V domains shown)
VH: B3 VH with A40R, Q50F, R57Y, Q59E, E62Q, T66D, Q102P
VL: EIVMTQSPATLSVSPGERATLSCKASQDVSTAVAWYQQKPGQAPRLLIYSASYRYTGIPARFSGSGSGTEFTLTISSLQSEDFAVYYCQQHYSTPWTFGGGTKVEIKR
notes: as for B3
B6: Y12XX-hz33 (antibody, human IgG1, kappa, V domains shown)
VH: B4 VH with A40R
VL: B5 VL
notes: as for B3
B7: Y12XX-hz31 (antibody, human IgG1, kappa, V domains shown)
VH: B3 VH with A40R, M48I, Q50F, R57Y, Q59E, E62Q, T66D, S84N, Q102P
VL: B5 VL
notes: as for B3
B8: Y12XX-hz23 (antibody, human IgG1, kappa, V domains shown)
VH: B3 VH with T54S, T55N
VL: B3 VL with S10F, F73L, I83F
notes: as for B3
B9: Y12XX-hz37 (antibody, human IgG1, kappa, V domains shown)
VH: B3 VH with T54S, T55N
VL: B5 VL
notes: as for B3
B10: Y12XX-hz32 (antibody, human IgG1, kappa, V domains shown)
VH: B4 VH
VL: B5 VL
notes: as for B3
B11: Y12XX-hz29 (antibody, human IgG1, kappa, V domains shown)
VH: B3 VH with Q50F, R57Y, Q59E, E62Q, T66D, Q102P
VL: B5 VL
notes: as for B3
B12: Y12XX-hz11 (antibody, human IgG1, kappa, V domains shown)
VH: B3 VH with A40R, M48I, T54S, T55N
VL: B3 VL
notes: as for B3
B13: Y12XX-hz13 (antibody, human IgG1, kappa, V domains shown)
VH: B3 VH with T54S, T55N, G56A
VL: B3 VL
notes: as for B3
B14: Y12XX-hz5 (antibody, human IgG1, kappa, V domains shown)
VH: B4 VH with A40R
VL: B3 VL
notes: as for B3
B15: Y12XX-hz39 (antibody, human IgG1, kappa, V domains shown)
VH: B3 VH with A40R, M48I, T54S, T55N
VL: B5 VL
notes: as for B3
B16: Y12XX-hz9 (antibody, human IgG1, kappa, V domains shown)
VH: B3 VH with T54S, T55N
VL: B3 VL
notes: as for B3
B17: Y12XX-hz8 (antibody, human IgG1, kappa, V domains shown)
VH: B4 VH with P101A
VL: B3 VL
notes: as for B3
B18: Y12XX-hz41 (antibody, human IgG1, kappa, V domains shown)
VH: B3 VH with T54S, T55N, G56A
VL: B5 VL
notes: as for B3
B19: Y12XX-hz10 (antibody, human IgG1, kappa, V domains shown)
VH: B3 VH with A40R, T54S, T55N
VL: B3 VL
notes: as for B3
B20: Y12XX-hz27 (antibody, human IgG1, kappa, V domains shown)
VH: B3 VH with T54S, T55N, G56A
VL: B3 VL with S10F, F73L, I83F
notes: as for B3
B21: Y12XX-hz12 (antibody, human IgG1, kappa, V domains shown)
VH: B3 VH with T54S, T55Q
VL: B3 VL
notes: as for B3
B22: Y12XX-hz1 (antibody, human IgG1, kappa, V domains shown)
VH: B3 VH with Q50F, R57Y, Q59E, E62Q, T66D, Q102P
VL: B3 VL
notes: as for B3
B23: Y12XX-hz15 (antibody, human IgG1, kappa, V domains shown)
VH: B3 VH with Q50F, R57Y, Q59E, E62Q, T66D, Q102P
VL: B3 VL with S10F, F73L, I83F
notes: as for B3
B24: Y12XX-hz4 (antibody, human IgG1, kappa, V domains shown)
VH: B4 VH
VL: B3 VL
notes: as for B3
B25: Y12XX-hz25 (antibody, human IgG1, kappa, V domains shown)
VH: B3 VH with A40R, M48I, T54S, T55N
VL: B3 VL with S10F, F73L, I83F
notes: as for B3
B26: Y12XX-hz17 (antibody, human IgG1, kappa, V domains shown)
VH: B3 VH with A40R, M48I, Q50F, R57Y, Q59E, E62Q, T66D, S84N, Q102P
VL: B3 VL with S10F, F73L, I83F
notes: as for B3
B27: Y12XX-hz26 (antibody, human IgG1, kappa, V domains shown)
VH: B3 VH with T54S, T55Q
VL: B3 VL with S10F, F73L, I83F
notes: as for B3
B28: Y12XX-hz2 (antibody, human IgG1, kappa, V domains shown)
VH: B3 VH with A40R, Q50F, R57Y, Q59E, E62Q, T66D, Q102P
VL: B3 VL
notes: as for B3
B29: Y12XX-hz24 (antibody, human IgG1, kappa, V domains shown)
VH: B3 VH with A40R, T54S, T55N
VL: B3 VL with S10F, F73L, I83F
notes: as for B3
B30: Y12XX-hz36 (antibody, human IgG1, kappa, V domains shown)
VH: B4 VH with P101A
VL: B5 VL
notes: as for B3
B31: Y12XX-hz3 (antibody, human IgG1, kappa, V domains shown)
VH: B3 VH with A40R, M48I, Q50F, R57Y, Q59E, E62Q, T66D, S84N, Q102P
VL: B3 VL
notes: as for B3
B32: Y12XX-hz38 (antibody, human IgG1, kappa, V domains shown)
VH: B3 VH with A40R, T54S, T55N
VL: B5 VL
notes: as for B3

What follows are binders tested against T1, human-CD40-monomer protein (human, UniProt P25942 21-193, limits assumed) (assay: SPR, Ab captured on protein A, hCD40 monomer 500 and 50 nM, 1:1 fit; supernatant).
T1 construct: Soluble monomer generated in house, used as SPR analyte; also called hCD40; hCD40-monomer
T1 sequence (P25942 21-193 limits assumed): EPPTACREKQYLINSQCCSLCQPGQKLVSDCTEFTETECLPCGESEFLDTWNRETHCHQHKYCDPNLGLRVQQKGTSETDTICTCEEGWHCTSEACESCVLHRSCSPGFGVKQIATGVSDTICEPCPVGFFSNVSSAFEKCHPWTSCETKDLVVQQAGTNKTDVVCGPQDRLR
Description: Titer analysis was performed using Biolayer Interferometry (BLI) on an Octet RED instrument (Fortebio) by capturing antibodies from supernatant using protein A sensor tips and measuring capture response with respect to a standard curve obtained using a control antibody sample. SPR data were obtained by capturing antibodies on a protein A surface and testing the binding of 500 nM and 50 nM injections of human-CD40 analyte, using a BIAcore™ T200 instrument (GE Healthcare). The kinetic data for the two concentrations of hCD40-monomer were fit to a 1:1 Langmuir model, to yield estimates of the kinetic and affinity values for these interactions, and for comparison of the different molecules.

Kd | koff | kon | Binder
0.067 nM | 3.8e-06 s⁻¹ | 56000 M⁻¹ s⁻¹ | B1
8 nM | 0.0028 s⁻¹ | 350000 M⁻¹ s⁻¹ | B2
5 nM | 0.00083 s⁻¹ | 170000 M⁻¹ s⁻¹ | B3
7.1 nM | 0.0024 s⁻¹ | 350000 M⁻¹ s⁻¹ | B4
0.018 nM | 7.3e-07 s⁻¹ | 41000 M⁻¹ s⁻¹ | B5
11 nM | 0.0033 s⁻¹ | 290000 M⁻¹ s⁻¹ | B6
0.007 nM | 2.9e-07 s⁻¹ | 41000 M⁻¹ s⁻¹ | B7
3.2 nM | 0.00064 s⁻¹ | 200000 M⁻¹ s⁻¹ | B8
3.3 nM | 0.00084 s⁻¹ | 260000 M⁻¹ s⁻¹ | B9
10 nM | 0.003 s⁻¹ | 290000 M⁻¹ s⁻¹ | B10
0.069 nM | 2.6e-06 s⁻¹ | 37000 M⁻¹ s⁻¹ | B11
5 nM | 0.00088 s⁻¹ | 180000 M⁻¹ s⁻¹ | B12
3.9 nM | 0.00083 s⁻¹ | 210000 M⁻¹ s⁻¹ | B13
7.2 nM | 0.0025 s⁻¹ | 350000 M⁻¹ s⁻¹ | B14
3.5 nM | 0.00084 s⁻¹ | 240000 M⁻¹ s⁻¹ | B15
4.6 nM | 0.00089 s⁻¹ | 200000 M⁻¹ s⁻¹ | B16

Kd | koff | kon | Binder
210 nM | 0.15 s⁻¹ | 720000 M⁻¹ s⁻¹ | B17
3.8 nM | 0.00094 s⁻¹ | 250000 M⁻¹ s⁻¹ | B18
3.6 nM | 0.00073 s⁻¹ | 200000 M⁻¹ s⁻¹ | B19
4.7 nM | 0.00088 s⁻¹ | 190000 M⁻¹ s⁻¹ | B20
8.3 nM | 0.0014 s⁻¹ | 170000 M⁻¹ s⁻¹ | B21
1.1 nM | 1.6e-05 s⁻¹ | 15000 M⁻¹ s⁻¹ | B22
8 nM | 0.00013 s⁻¹ | 16000 M⁻¹ s⁻¹ | B23
4.7 nM | 0.0022 s⁻¹ | 460000 M⁻¹ s⁻¹ | B24
3.4 nM | 0.00064 s⁻¹ | 190000 M⁻¹ s⁻¹ | B25
210 nM | 0.077 s⁻¹ | 370000 M⁻¹ s⁻¹ | B26
7.5 nM | 0.0012 s⁻¹ | 160000 M⁻¹ s⁻¹ | B27
4.1 nM | 7.1e-05 s⁻¹ | 17000 M⁻¹ s⁻¹ | B28
4.4 nM | 0.00082 s⁻¹ | 190000 M⁻¹ s⁻¹ | B29
250 nM | 0.1 s⁻¹ | 390000 M⁻¹ s⁻¹ | B30
4.5 nM | 6.7e-05 s⁻¹ | 15000 M⁻¹ s⁻¹ | B31
3.6 nM | 0.00088 s⁻¹ | 250000 M⁻¹ s⁻¹ | B32
